Numbering of substitutions follows the chain as printed.
T1: GST-tagged IsdA (Staphylococcus aureus, UniProt A5IS16 47-316)
T1 sequence: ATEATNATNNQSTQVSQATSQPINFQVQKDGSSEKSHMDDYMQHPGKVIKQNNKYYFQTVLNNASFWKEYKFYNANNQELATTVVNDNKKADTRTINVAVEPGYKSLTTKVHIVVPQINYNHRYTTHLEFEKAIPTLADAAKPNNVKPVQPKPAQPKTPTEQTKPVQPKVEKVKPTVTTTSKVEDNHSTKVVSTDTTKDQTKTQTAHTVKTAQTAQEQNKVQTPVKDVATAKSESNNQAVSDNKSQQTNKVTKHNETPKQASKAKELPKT

B1: MAb 7D4 (antibody, V domains shown)
VH: EVQLQESGPELVKPGTSVWISCKTSGFTFTKYTMHWVKQSHGKTLEWIGGIDPNNGDTSYNQKFKDKATLTVDKSSSTAYMELRSLTSEDSAVFFCVRLEGSLPLDYWGQGTTLTVSS
VL: DVGMTQTPLSLPVSLGDQASISCGSSQSLLHSNGKTYLHWYLQKPGQSPKLLIYKVSNRFSGVPDRFSGSGSGTYFTLKITRVEAEDLGVYFCSQTTHVPFTFGSGTKLEIK
B2: MAb 1B8 (antibody, V domains shown)
VH: B1 VH
VL: DVVMTQTPLSLPVSLGDQASISCRSSQSLVHSNGNTYLHWYLQKPGQSPKLLIYKVSSRFSGVPDRFSGSGSGTDFTLKISRVEAEDLGVYFCSQSTHVPYTFGGGTKLEIKR
B3: MAb 3D8 (antibody, V domains shown)
VH: QVQLQQSGAELVRPGTSVKVSCKASGNAFTNYLIEWIKQRPGQGLEWIGVINPGSGITNYNEKFKGKATLTADKSSNTAYMQLSSLSSDDSAVYFCSGSANWFAYWGQGTLVTVSA
VL: DVVMTQTPLSLPVSLGDQASISCRSSQSLVYSNGNTYLHWFLQKPGQSPKLLIYKVSNRFSGVPDRFSGSGSGTDFTLKISRVEAEDLGVYFCSQTTHIPLTFGAGTKLELK
B4: MAb 4H7 (antibody, V domains shown)
VH: EVQLLQSGPELVKPGTSVKMSCRTSGYTFTEYTMHWVKQSHEKRLEWIGGIDPSNGDTSYNQKFKGKATLTVDKSSSSAYMDLRSLTSVDSAIYYCARLEGVLPLDYWGHGTTLTVSS
VL: B3 VL
B5: MAb 7E9 (antibody, V domains shown)
VH: DVQLQESGPGLVKPSQSLSLTCSVTGHSITSGYYWNWIRQFPGNKLEWMGYISFDGRNKYNPSLKNRISITRDTSKNQFFLKLNSVTSEDTATYFCTRLSYSTLDYWGQGTSVTVSS
VL: B3 VL with V30L, F41Y, G69A, T96S, I99V
B6: MAb 5H8 (antibody, V domains shown)
VH: GLTGEPGTSVKMSCRTSGYTFTEYTMHWVKQSHEKRLEWIGGIDPSNGDTSYNQKFKGKATLTVDKSSSSAYMDLRSLTSVDSAIYYCARLEGVLPLDYWGHGTTLTVSS
VL: DIVMTQSQKFMSTSVRDRVAVTCKASQNVGTNVAWYQQKPGQSPKALIYSASYRYSGVPDRFTGSGSGTDFTLTISNVQSEDLAEYFCQQYNSYPYTFGGGTKLEVK
notes: also called 5H8.9
B7: MAb 3H11 (antibody, V domains shown)
VH: SLDLTGEPGASVKMSCRTSGYTFTEYTMHWVKQSHEKSLEWIGGIDPDNGDTSFNQKFKGKATLTVDKSSSTAYMELRSLTYDDTAIYLCARLEGVLPLDYWGQGTTLTVSS
VL: B6 VL
notes: also called 3H11.47

Target: T1, GST-tagged IsdA
Experiment: cell-based or functional assay

| Binder | Δheme binding: percent change in Δ peak absorbance at 405 nm and 368 nm [%] |
| --- | --- |
| B1 | -0.6 |
| B2 | 0.5 |
| B3 | 34 |
| B4 | 34.4 |
| B5 | 35 |
| B6 | 0.5 |
| B7 | 0.5 |

Target: GST-tagged IsdBC (Staphylococcus aureus Newman, UniProt A5IS15 328-645)
Experiment: cell-based or functional assay

| Binder | Δheme binding: percent change in Δ peak absorbance at 405 nm and 368 nm [%] |
| --- | --- |
| B3 | 29.4 |
| B4 | 29 |
| B5 | 29 |

Target: T2, Poly-histidine tagged IsdB (Staphylococcus aureus, UniProt A5IS15 41-613)
T2 construct: also called IsdBFL; recombinant IsdB
Experiment: ELISA, coated poly-His IsdB
Description: Proteins were used to coat Nunc MaxiSorp 96-well plates at a concentration of 1 μg ml⁻¹ PBS. Plates were washed and incubated with PBS-Tween and variable concentrations of MAbs.

| Binder | binding result |
| --- | --- |
| B6 | no binding |
| B7 | no binding |

Reference: patent US20140037650A1 (UNIVERSITY OF CHICAGO, published 2014)
